Assay results from article doi:10.1101/2024.04.30.591854.
pKd: −log10 of the molar value.

Target: RBK21 variable region (residues 148-299) (Plasmodium falciparum (strain Lek174))
Assay: SPR

Chain of KIR2DL1 as used in the SPR experiments with RBK21 (P43626 22-348): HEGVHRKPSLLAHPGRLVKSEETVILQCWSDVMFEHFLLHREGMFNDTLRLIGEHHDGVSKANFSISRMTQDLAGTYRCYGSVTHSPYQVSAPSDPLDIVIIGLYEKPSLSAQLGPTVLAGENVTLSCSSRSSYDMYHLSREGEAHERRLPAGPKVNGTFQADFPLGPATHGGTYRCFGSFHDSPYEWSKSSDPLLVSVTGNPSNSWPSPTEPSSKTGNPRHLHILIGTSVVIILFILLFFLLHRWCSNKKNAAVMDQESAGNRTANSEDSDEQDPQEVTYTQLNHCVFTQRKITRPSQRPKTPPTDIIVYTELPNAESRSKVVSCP
Chain of KIR2DS1 as used in the SPR experiment with RBK21 (Q14954 22-304): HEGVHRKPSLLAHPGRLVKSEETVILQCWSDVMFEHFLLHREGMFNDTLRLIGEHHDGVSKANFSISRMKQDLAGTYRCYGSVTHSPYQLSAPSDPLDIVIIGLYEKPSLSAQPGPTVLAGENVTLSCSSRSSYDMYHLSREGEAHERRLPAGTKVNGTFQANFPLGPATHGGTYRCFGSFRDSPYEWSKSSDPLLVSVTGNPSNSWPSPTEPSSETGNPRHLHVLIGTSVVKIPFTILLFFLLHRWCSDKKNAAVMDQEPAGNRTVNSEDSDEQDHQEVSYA

Substance | pKd
KIR2DS1 as used in the SPR experiment with RBK21 (from UniProt Q14954 22-304) (receptor) | 5.70
KIR2DL1 as used in the SPR experiments with RBK21 (from UniProt P43626 22-348) (receptor) | 6.35
